Measured values as given in the DeepSol protein solubility set.

Experiment: soluble on expression in E. coli; label from the status in PepcDB or PDB records

Row | Sequence | soluble on expression in E. coli
1 | MNKEALVQVAEEVRRATGLPVGWRDVERTLGALRATRDLWEAVRLSRVPLRFLVPIWEGLARRGLLRVEEGLDLLAEVPAPRPGEAACPACEGRGLVGERLPGRAAERFLAWAKERPEAIQDFDQGYVTPESTLARVALAWNWGDLEGKEVLVLGDDDLTGLAAALTGLPKRVVVLDADPRIVRFLERAAKAEGLPLEAHVHDLREPLPEAWVHAFHTFFTDPVEGPLGLQAFVGRGLLALEGEGCAGYVGLTHVEASLAKWADFQRFLLENGAVITELRDGFHVYENWGYIEQMRAWPWLPVKRRPEKPWYTSALIRLELLRRADLENARVEGDLQDEEATTY | soluble
2 | MNKFHDIFLELEQQIVQGDYQPGDLLPSENQLVETYNVSRETIRKALNLLINAGYIQKKQGKGSIVLNFKKFNFPISGVTSYKELQQTQHIESHTHVVSLEEIPVERNLAQLTGWTEGAPVWRLVRQREIEGEVDILDIDYLIKEIVPELPKHRAEDSIFDYLENDLGLAISYAQKEITVEPLTEMDKQLIGEVEGNHVVVVRSIMNLEDTRCFGYTESRHRLNKFKFVEFARRRKL | not soluble
3 | MNKIFIYAGVRNHNSKTLEYTKRLSSIISSRNNVDISFRTPFNSELEISNSDSEELFKKGIDRQSNADDGGVIKKELLESDIIIISSPVYLQNVSVDTKNFIERIGGWSHLFRLAGKFVVTLDVAESNGSDNVSEYLRDIFSYMGGQILHQVSITNSLKDIAEAQLMEATYKIEDVLEGKIKYKTTDYQERAYQTLKLILENYDSEHFEKMYWEKKRLFEANSLEEWYYVENIKLEHHHHHH | soluble
4 | MNKKTIQDLIPKAMQAIEGVGIVGKDKKFEKVHEGYINALGPTIIQSGLLPTLIFYNKDKRELWLKALYYMEIISNDIDPTAIIQLIIKEGDSESRQEKTLKELEPKAKEWERKILEYAVALKLALRTFVAKESETGNTEQQKGGAQ | not soluble
5 | MNKPLTPSTYIRNLNVGILRKLSDFIDPQEGWKKLAVAIKKPSGDDRYNQFHIRRFEALLQTGKSPTCELLFDWGTTNCTVGDLVDLLVQIELFAPATLLLPDAVPQTVKSLPP | soluble
6 | MNKRCEEVLRRYFAEVPFIIEKACELAESMLGEGSHGLSHTIRVLDLALQIGRVEGANLEVLALAAILHDIARPLEDKGRIKDHAQEGARIVRSFLSKLRYPHVDEVAHAIEAHRFSTNIEPRTLEAKILSDADKIDALGAIGIARVFMYAGEKGRSIEDSIKHFEEKILRLKDLMYTETGKRIAQERHKIVEEFVNILKKELIAAALEHHHHHH | soluble
7 | MNKRMKMCPACQQGYLYHSKPKYLHDEIILCDECDAVWLKGMNIFYGEYEKDFYSYVPFMESQGITSECIWEGDLFDHPYYEDENSNDMD | not soluble
8 | MNKWSRLYVITVRRTFPGRRNIVLTQYWNKSKKMSDESNDVKWNDALTPLQLMVLRDKATERPNTGAYLHTNESGVYHCANCDRPLYSSKAKFDARCGWPAFYEEVSPGAITYHRDNSLMPARVEICCARCGGHLGHVFEGEGWKQLLNLPKDTRHCVNSASLNLKKD | not soluble
9 | MNLDELLLLIEKNRSQLSKIDDDFYEKLRERIAELEEMKSSAGESDFFRYEDEIRTLKRLQRKIFELRTGKIISAAWAEVCGQQFSSDVENMCSDERVFFKKLIDIIKEFKRSILEGGKRKISDRVLVRIKKDVEIQGADGKTYKLRREDVVTLPQLNADALIKGGIAERIEVKEDEVSQEGLEHHHHHH | soluble
10 | MNLEKINELTAQDMAGVNATILEQLNSDVQLINQLGYYIISGGGKRIRPMIAVLAARAVGYQGNAHVTIAALIEFIHTATLLHDDVVDESDMRRGKATANAAFGNAASVLVGDFIYTRAFQMMTSLGSLKVLEVMSEAVNVIAEGEVLQLMNVNDPDITEENYMRVIYSKTARLFEAAAQCSGILAGCTPEQEKGLQDYGRYLGTAFQLIDDLLDYSADGEHLGKNVGDDLNEGKPTLPLLHAMRHGTPEQSAMIRTAIEQGNGRHLLEPVLEAMTTCGSLEWTRQRAEEEADKAISALQILPDTPWREALIGLAHIAVQRDR | not soluble
11 | MNLKSFTRKVSSTRDHRLLAEAIFDQLENLFSPHAIAIFEDPLTNPRCSVSFSRGELYPIQKYPEIFWDWACQFDTSESIIPLAINTCNWNHTQDLGGDSYILMLDNTPIKRTYLLIQSVQARTAHNIYEESYDAMQLAAARWQCIRAEKNASQEMRHRDIREAQYVDEISQRERFIENMKLVQQVALEISNPDSLKDLYYKAVEALRERLGFDRTTLMLLDMKKRSFSGTYGTDESGITIDEFHTQYDLHQLSEEYIAALSSLESNLVIIEDAPIYTAGKVVGQGWNAMLILRDGNEPFGWFALDNFIHRKPITAYQKQMLDSFGSLFSQIYIRKRQEQNVRMLHSSMVELSRCTTVSDVCKSAVTFAIKNLGIDRMAVFLTDENCSYMQGTWGTDIQGNVVDESYFFGETQNFSLINLARAVPSEVAFEESVPIYHDCNIVG | not soluble
12 | MNLLKTIEKVKANWGGKYFSIEFVKNPKKVVRDWRNSGGIVVHLTMYGIPIDNIMEKIINKNTKILVVVGSEKVEGWYYYNSDYNIAIGNQPHSEVAALAIFLDRIYKGGELNIQFSDAKLSIIPQERGKKVRKNE | soluble
13 | MNLLQHIAQSRQQLRKSELKVADHVLNDPASVMHSSMAELAHGVGVSEPTIVRFCRAIGCSGFQDLKLKLAQSLAAGASFGQFSIHESDSVADFSLKIFDTTLHSLMEVREHLDTHALERAIAAIAHAQRVEFYGFGASGAVASDAQHKFFRLLLSAAAYSDPHMQAMSAVTLKPSDVAICISQSGRSKDLLITANLVREAGATLITLCPSQTPLADLATVNLAIDVHEDTDIYTPLTSRIAHLVVIDVLAMGVAMARGPDLVNHLKSVKRSLRSLRLSPKVMKNQEERGEPS | not soluble
14 | MNLLVIGGHERMEKDYMVMAKKKGYKTKVYTTMSSKLNNSIGRPDAVVILTSTVSHKMSRTVESQAKKQDILIVRHKNSLEHHHHHH | soluble
15 | MNLNNIRSSMTESTKSKDESMRSHLVKPGSVYDGIEPGELGETTESVQDRVRQLESRNSFLEEQCSQIESEKRYLENQKIKYEREIRKLQSELDRMKTSPLIIGTVIDVIKNDRIIVRSSNGPQFLVNVSQYIDEKKLLPGAKVALNQHTLAIAEVIPSTEEPFVAAMEVIESVEVDYDQIGGLDEQIQELQEAVELPLTSPERFARIGIEPPKGVLLYGLPGTGKTLLAKAVAHRTNATFIRVVGSELVQKYIGDGSKLVREIFEMARKKAPSIIFIDELDSIAARRLNETTGADREVQRTLMQLLAEMDGFDKRKNIRIIAATNRPDVLDPAILRPGRFDRLVHVPMPGIEARGKILKIHCEKMTLAEDIDFKKLAKATEGMSGADLKAIATEAGMFAVRRDKELVEMEEFLEAVEKVSMAADTQKMMPSNLPETMFV | not soluble
16 | MNMNKETHICALCERKVPKITEHHLIPREKGGRFDETTWLCVPCHKQVHALYSNYELAVRLNSLPRLKDDEKIKRYLKFIKKQPGDANVTIKKSKAIRKKGRYLEHHHHHH | not soluble
17 | MNNAHEENISSVTGFKSTSGSPAIGSSLPGRSGEGRSSSSSSGSTALLAVVNSTLKAIFSNTLDSIFHMVCTDSDKRLSSEFHCLQSMFNLQLFVNLGCPLS | soluble
18 | MNNAMQLLQPYPFKKLRALLGSVTPNPEKRPVALSIGEPKHRSPDFVAKALADNLDQMAVYPTTLGIPALREAIAGWCNRRFGVPQGWIDPARNVLPVNGTREALFAFTQTVVNRSDDGLVVSPNPFYQIYEGAAFLAGAQPHYLPCLSDNGFNPDFDAVDADIWKRCQILFLCSPGNPTGALIPVETLKKLIALADEHDFVIAADECYSELYFDEQTPPPGLLSACVELGRQDFKRCVVFHSLSKRSNLPGLRSGFVAGDAEILKAFLLYRTYHGCAMPVQTQLASIAAWNDEEHVRANRDLYREKFDAVLDILAPVLDVQRPDGGFYLWPNVGTDDAAFCRDLFVDQHVTAVPGSYLSREVDGVNPGAGRVRLALVAPLAECIEAAERIRAFVLK | not soluble
19 | MNNFFKHTLETHTPQSMSKITSYIREDIKNSNIENGIVVVYCPHTTAGITINENADPDVVKDLIYGFEKVYPTNDHKYRHFEGNSHSHLKSSTVGVSQQLILHRGRLILGQWQDVYFCDFDGPRNRTFYVKILEGLEHHHHHH | not soluble
20 | MNNLSVNGSSNGLFAKPTIGRSEYGRVKVALAPGKGFMDWLRLTTNKHLAKRVSGGVDHVELMKHNTKDDCWVHLFGIVYDVTKYLDFHPGGIPELLRGAGRDATPLFNQYHAWVNYESMLKACVVGPFIGDLTKLPSPLPPTTSDDKNKLGVPSSALFSTDPSENGYGARVETLSDNSGISFEHDDWTELTEHNTSINTRGEENTEEHARLRVLIHHFWKPAMEFEFEPTPALCHVEYTLKIMKNRVEIRFSREISGGKIDRSKCKIQRRPGVTYHTTEIIDRYRLNHDTLIFSLQLPEHTTYRIPIGHHVSIKIRKGSMGKFSWKFFLIFGYSVLYRPYTPISNPDPQKIDFMIKIYSNGICTPSLENLKIGGELEISDPIGERNFAEWTENAQELILLAAGSGITPMIDIMEKRIQKTENSNSKVYFLMFNKTENDLQTGKPEENPKSTWKMADFYSKYRGDERIVMKNVLSASECPVETGEYFNGRVSTDLLNSIISTSSTASRRAFICGPDGFILAAKTALESLNLHSDQIHIFQG | not soluble
21 | MNNMSLSDIFERFDTSKDGKISWEEFRDAIHALSPSIPSEKLVEMFIQLDTNGDGQVDAAKFASCMDQTAQSSGGDVEKELKDAFKLYDINCDGKISANELHVVMTRLGEKCTVESCVGMVQAIDVDGDGYIRFVGV | soluble
22 | MNNNEIYVSLDIGTSNVRIIIGEITDGSINIIGVGNAPSEGIKKGSIVDIDETVRSIRRAVEQAERMVGLSIRQVIVGVNGNHVQLQPCHGVVAVSSPDREIGDEDIARVIDAAQVVSIPPEREIIDVIPKQFIVDGLDEINDPRGMIGVRLEMEGTIITGSKTLLHNLLRCVERAGLEVADICLQALAAGSVAISKDEKSLGVCLIDIGGGSMTISCFEQGSLVDTSVIPVGGDHVTNDIAVGLRISTEEAIKIKHTHGHAYIDEASEEDRFEVKAIGSTEPEAFSQFELAHIIEPRMEEMFELINRELRRLGQHDFPGGFVLTGGSVMMPGVLELAKETLGRNVRVAIPDYIGVREPQYTTGVGLIQFAYKNVKIQGKEVAAAVAEAGVEQEQRPKKEKERSRTNEGPGVKSKVKNWFKVFLE | not soluble
23 | MNNRDQLFKAPPFENHSPLTWYQAASQLPNFIRDDAQAAAIEHLDRLWTELMMFKRKRNRFLGRSLRSPQVPKGLYFYGGVGRGKSFLMDAFFGCLPYRRKRRVHFHAFMAEIHRRLKALKSESNPLKSVAAEITKETRVLCFDEFHVSDIADAMILGRLLENLLNEGVVLVATSNYAPSELYPQGQNRSGFLPTIALIESSLTVLNVDGGEDYRLRTLRPAEIFFTPANEENEAKLAKLFKEMTGITDLNPGISTIHGREIPHKAESGRTIWFDFRALCFSPRSQSDYLYLAEHYEMVFISGLEQLSPQEKAEARRLTWLIDVLYDFRVKLCATGAVDVNHIYTEGDFAEEFTRTASRMVEMQSEVYLEQPHLTLSPKASGGLEHHHHHH | soluble
24 | MNNSREDQWLQHYEQQNIQEITPCFNAINIASSSGSSLGDGGAAAHEAAGRRSRASRRAIPTTLLNANPSNFRALVQKFTGRSAGGESNRRKGPVTLDFGSPTTISKEAIFPVSSDRSNNNLDHVVNQHVSNEQRHVTWSGTESMMSYQLGEETNSAVYSSGYDDQDLPREYSGNSSYDESLDHMDYYQDFHRETATLEEFMMRDLDL | soluble
25 | MNPLLQDYARILLEWNQTHNLSGAKNLSELEPQITDALKPLEFIKDFKSCLDIGSGAGLPAIPLALEKPEVKFILLEPRIKRAAFLNYLKSVLPLKNIEIIKKRLEDYQNLLQVDLITSRAVASSSFLIEKSQRFLKDKGYFLFYKGEQLKDEIACKDTECFMHQKRVYFYKSKESLCLEHHHHHH | soluble
